Measurements from the DeepSol protein solubility set.

Experiment: soluble on expression in E. coli; label from the status in PepcDB or PDB records

| Sequence | soluble on expression in E. coli |
| --- | --- |
| MSLGIKVNRLKVEDQILRQFGGNLLLEKDGNRGFIAFIGRGLIDFTERIRILATVSRIKDILFIGTAGSLSNEILIGDLNIPKYAIPFENVSDFYADPTIAIPQADEKLLNEVYEYAEETGVKTHSTLHATLLFPYSETTEFLNYLLNIGVSTIDMEVSAFYKMSRFYGKRAVAVLRISDMPLIELHKQEELIKARREIAVNAVFRITLRFLKLEGHHHHHH | not soluble |
| MSLGIVIYGTRVIYPAEKKEVVVQLVNQGEQASLVQSWIDDGNTSLPPEKIQVPFMLTPPVARVAAESGQQIKIKKMPNSLPDNKESLFYLNVLDIPPNSQENAGKNVLKFAMQNRIKLIWRPSRIAAVTKDSFQRIGLFRSNKAVIMKNDTANWITVTDVKAGNTKINDQTIMLPPLSTQNINMKYASTSQYEVTIIDDNGNYISSKMNVKEGHHHHHH | soluble |
| MSLGKLSILSKRKYTMKNQIQFSTFNFKDLPVRVILDPKGEFWFCGTDVCHILGYTNSRKALQDHCKQGGVTKRYTPTKSADQEMTFINEPNLYRLIIKSRKPEAEPFEAWVFEEVLPQIRKTGKYQLQPQQLALPEPEKKFSFEFTEYELQQLVWLWFAFMRGIVTFQHIEKAFKALGSNMSGDIYGQAYEYLSVYAQQTKSEGHHHHHH | not soluble |
| MSLGKRIFVFDTTLRDGEQVPGCQLNTEEKIIVAKALDELGVDVIEAGFPVSSPGDFNSVVEITKAVTRPTICALTRAKEADINIAGEALRFAKRSRIHTGIGSSDIHIEHKLRSTRENILEMAVAAVKQAKKVVHEVEFFCEDAGRADQAFLARMVEAVIEAGADVVNIPDTTGYMLPWQYGERIKYLMDNVSNIDKAILSAHCHNDLGLATANSLAALQNGARQVECTINGIGERAGNTALEEVVMAMECHKETLGLETGINHKKLVPISHLVSTLMRMQVQSNKAIVGRNAFAHSSGIHQDGFLKHRETYEIIDPAAVGADSSSIILTARSGRAALNHRLATIGYMLSKDQLDQAYTQFLDMADHLRKVEDENLHELMRGKVYAKEGHHHHHH | soluble |
| MSLGNKSEAYEQYIQQIKEENGINNFFDRYPYLLKQINREVRLIEESYSLLFDRFLKDLSELRSCFNITEPLSNVEFSLGDSHSQKQTVVKIEFKGKSIYYKPKSYDSYNILLELISLLKSNNIPSFSLPESLIKADYCWQLGVDYINSNNDEVKRIYFKYGVLAAFSEIFSITDLHMENVIVSGGDLYLIDVETFFQRKLNVQTNNFEGITVDTYQRIYETSLSNGLFPVQFEKNSAPNISGISGKGGKRKKGKYELINKNRGDMKLVKTDYFQEDSYNIPTLNEKMVEPLDYANEVIAGFRECYTFLMTQRAKVKKILYGFPKLRTRAIFRNTSDYGKFLQASTNPKYLFSEKKRENLFSILYESKHIEQFIVDSEIKDLMNGDIPYFSMDPNGNVYNSLGTVIGNLGKTTSLFDNIATLNDERMKFTCELIGIVLKKPIKHWERKDGKSYYFPSISSKQSFNEEILRQREGHHHHHH | not soluble |
| MSLGQFWHVTDLHLDPTYHITDDHTKVCASSKGANASNPGPFGDVLCDSPYQLILSAFDFIKNSGQEASFMIWTGDSPPHVPVPELSTDTVINVITNMTTTIQSLFPNLQVFPALGNHDYWPQDQLPVVTSKVYNAVANLWKPWLDEEAISTLRKGGFYSQKVTTNPNLRIISLNTNLYYGPNIMTLNKTDPANQFEWLESTLNNSQQNKEKVYIIAHVPVGYLPSSQNITAMREYYNEKLIDIFQKYSDVIAGQFYGHTHRDSIMVLSDKKGSPVNSLFVAPAVTPVKSVLEKQTNNPGIRLFQYDPRDYKLLDMLQYYLNLTEANLKGESIWKLEYILTQTYDIEDLQPESLYGLAKQFTILDSKQFIKYYNYFFVSYDSSVTCDKTCKAFQICAIMNLDNISYADCLKQLYIKHNYEGHHHHHH | not soluble |
| MSLGQKFAVFIAYDDEPNTKRYSAEFQTQDEYVKGWQSALKKAHHTSGQKSVISCGCRGKGAKRLYVRSLPNSDTFILIKAANTGTEHDPSCVFFDLDARHTGLKGYASNVVRINNEGTMSIRLGIGMTEKDPPEKSEVPSLPQIQRPEGGQASMTLSGLLSLLWTEAGLNVWYPNMAGKRNDSLVRYRMLEAAKQIRSGRACIGDHLFIGVADSKSKVASEQVQLLSSAELSDKRLLLLSVLPRYDAEKHEKPLKFLPMRNFGGMPLTFFNSDGHWDSVKRRFPLEYAAWKNGGKVVVFALTSPVSVTSRGISARAHQIVLMLVSDNWIPLDSSYEAIVSRKLDAEHRHYVKPMRYDASASDVFPDFYLLDTRSDKPFPMEVFGMSTPAYLARKELKKAYYNQEYGAYGWWHWDATEKTEYQELPHFPEARREGHHHHHH | soluble |
| MSLGQRTSRTPDQLENVGVDQKLGATIPKDLSFQNEQGEPVRLSQYFDGSTPVMLTLNYHRCPQLCRIQLQKFTKSLSGMSWTAGDKFKVLTVDISPYEGPKMARKAQERYATFLDRPEETVDGWHFLTGNQAAIETLTDSVGFRYQPLPEKEKQFAHPTTIIFLSGDGTITRYFTTLDPAPGDLRTALVEASDGEGHHHHHH | soluble |
| MSLGSPKSVRIVVVGDKGTGKSSLIVAAATDSFPPNVPPVLPDYKLPIEFFPDGIPVTIVDTSSRPEDRDIVAEELKRADAVVLTYACDRPETLERLSEYWLPELRRLEVKIPIIVAGCKLDFRDDNNQVSLEQVMSPIMQQFREIETCIECSALKQLQAQEVFYYAQKTVLHPTGPLFDQEGHHHHHH | soluble |
| MSLGYATAHRRVRHLSADQVITRPETLAVEEPLEIRVNGTPVTVTMRTPGSDFELVQGFLLAEGVVAHREDVLTVSYCGRRVEGNATGASTYNVLDVALAPGVKPPDVDVTRTFYTTSSCGVCGKASLQAVSQVSRFAPGGDPATVAADTLKAMPDQLRRAQKVFARTGGLHAAALFGVDGAMLAVREDIGRHNAVDKVIGWAFERDRIPLGASVLLVSGRASFELTQKALMAGIPVLAAVSAPSSLAVSLADASGITLVAFLRGDSMNVYTRADRITEGHHHHHH | soluble |
| MSLGYQYDTLIYNVRIASMQDNKLPYGELPPHAIAIKDGKIAALLPCDDSLDDVFEQAKSVIDATTLIPQNEGSTPKPPWLLPGFIDCHTHLVYGGNRAEEFEMRLQGASYVDIAQRGGGIKGTVEKTRCSDENTLLHTAIKRAKRLCEEGVTTIEVKSGYGLDLDTEVRMLRVAKSLEQHLPVSIKTTYLGAHALPNEFADDSEGYIDFICNEALPHIASQNLADAVDVFCETIGFSTSQTERVFSCAQQHGLPIKAHVEQLSDSKGAVLAAKYGALSVDHIEYLADSDIPLLAQSGTVAVLLPGAFYYLSEVQKPPVDALRAHNVPMALATDFNPGSSPLASILTAINMGCVLFQLTPEEALRGATAHAASALGLHDRGVIEAGKLADLTLWDIETPAELAYCINGHRPIAVFKEGKHVEGHHHHHH | soluble |
| MSLHDKQELSSKSNLNNQKGYLDNEGANSNYESKKQSILSELNQLLKQTTNSLKEAKNTTDNLNASNEANKVVEAVINAVNLISSAADQVKSATKNMHDLAQMAEIDLEKIKNSSDKAIFASNLAKEAYSLTKAAEQNMQKLYKEQQKISESESESDYSDSAEIKQAKEAVEIAWKATVEAKDKLIDVENTVKETLDKIKTETTNNTKLADIKEAAELVLQIAKNAKEIVQEVVALLNTEGHHHHHH | soluble |
| MSLHSLTRIKVLQRRCTVFHSQCESILLRYQDEDRGLQAEEEAILEQIAGLKLLLDTLRAENRQLSREEIYTLLRKQSIVRRQIKDLELQIIQIQEKRSELEKKREEFQKKSKYWLRKEGNYQRWIIRQKRFYIQREIQQEEAESEEIIEGHHHHHH | soluble |
| MSLHSVKASANRFTKTSQGRSWNTGNGSPDAICFAVDKPGIVVVGFAVYGGGGIHEYELEVLVDDSEHAGDSTHSHRWTSLELVKGTYTTDDSPSDIAEIRLDKVVPLKENVKYAVRLRNYGSRTANGDGGMTTVQCPDGVTFTFSTCSLSSNGTNQTRGQIPQILYYRSEFDGDLQSQLLSKANEEDKNCSRALSVVSTVVRAAKDLLHRALAVDADEGHHHHHH | soluble |
| MSLHYQPKQDLLQNRIILVTGASDGIGREAALTYARYGATVILLGRNEEKLRRVAQHIADEQHVQPQWFTLDLLTCTAEECRQVADRIAAHYPRLDGVLHNAGLLGEIGPMSEQDPQIWQDVMQVNVNATFMLTQALLPLLLKSDAGSLVFTSSSVGRQGRANWGAYATSKFATEGMMQVLADEYQNRSLRVNCINPGGTRTSMRASAFPTEDPQKLKTPADIMPLYLWLMGDDSRRKTGMTFDAQPGRKEGHHHHHH | soluble |
| MSLIGEILPLSHIVLDMEVGSKKRLFEEAGLLLERESSLSHADVFECLFAREKLGSTGLGQGVAIPHGRHAGVKQATGAFIRTREPVGFDAPDGKPVSLIFILLVPENATGEHLEVLSKLAGKFSQKSIRESLMTVSSAEEVRAILTEE | soluble |
| MSLIGITQRLICNDSYHEKRECLALDWGKLFNKDLFKNFTPLPLSYEIDFSYYKHLIKAVILSGGNDLSFYSPNVLSKKRDLYEKQVIEICLEEKIPLLGICRGAQMIAHYFNSHISPCENHIGKHEVFFSKEKFISNSFHNFAIEKLGEDLVELCLAKDNTIEAFKHKYENIFGIMWHIERENGLNNIQILKEWFSLIKEGHHHHHH | not soluble |
| MSLIHSMTAFSRIQKQFDVGDFCWEIRSVNHRYLDVSFRLPESFRFLEAELRTLLRDKIHRGKLECHLKYKDTSCDNRSMLINIGTINALLDLSSKLSASHHLANDMTVSQVLSWPGVVEASLLDMEELSQIALELFQKSIDKLCEVRAGEGRSLKAYVEDRLQALRQEVMKSKSIVVSMSAKTKDKLLTRLHELQMDVPEARVEQEIALLLAKLDVSEELDRLETHIAEVSRTLNAEKVTGRRLDFLMQELNREANTLSSKSDSAELTLCAVEMKVLIEQMREQIQNFEEGHHHHHH | soluble |
| MSLIIYGYCRVSTKNQTDNNSLYQQQQEILNKYNDAKIIKETYTGTTTNRPKFEKIISSLKKGDLLVATKLDRLARSTSEGIQLIEGLFAKEVSVHILNIGLLENTSMGKFFLTTLLAVAELERNMIIERTQLGKEFAKKKKDFKDGRPKKYSNQQIQYALGLLNSKPYREVVKMTGISKSTLIRAKKSIEGHHHHHH | soluble |
| MSLIPIRCHAVSGVALSTVQGETRLLMMKRVKGGFWCHVAGTVEAGETGWQTIVREFREETGIVVHELYNGQYLEQFYEHATNTVCLVPVFVVYCPPTQAVTLNHEHTEYRWSTLAEAKALAGFPGQQALYDHLWHYFVENSPSALMRVAMTEGHHHHHH | not soluble |
| MSLIPVVLSGGAGTRLWPVSREGQPKPFMRLPDGQTLLGKTYRRAAGLLAGHGEIVTVTNREHYFQSKDQFHAARLGRHRGHFILEPTGRNTAPAIAVAALGLQAEHGDAAVLVVMPADHLIRNEEAFREAVGHAARLAVAGHLVTFGVVPDAAETGFGYIELGDRLDEQGAAKVRRFVEKPDEETRRRYVESGGFLWNSGMFCFTASTLVDELAQHAPALLEQARACLAASAAVKMADGIQHELAGEGFAALPDISIDYALMERSARVAVVPAAFDWSDIGSWGAMSALLDADAEGNRGSGDTLFVDTRNTFVQSDGRLVATVGVDDLVVVDTSDALLIARADRVQEVRRVVQRLKDERHEAYRLHRTVNRPWGSYTVLEEGPRFKIKRIVVRPGERLSLQMHHHRSEHWIVVQGMARVTNGDGARLVNSNESTYIPAGHRHRLENPGVIDLVMIEVQSGEYLGEDDIVRFEDQYGREGHHHHHH | not soluble |
| MSLIQQQPIKPLANSQVCCSDFSQYPWIQLATTEDINFQLDKDSPIGHFSDGNSYFNAFKFAERSGKVQLRLSSLMINDSVAAPKLIALDHEFNVVSTTSLDQFDVKPSDAFTRTQFQLNFQLNAAKTPYFIIYSSNEYLGQSIKVKHPARIRAEELGEPMPMVTDPTYAYERFGKLKLSIKTLSLQADKQADQQPKVAIKSAQPETHTFYKEAIVEAVKTNDIPKALALLEEAKSLGIQDAQDTFVQALESQKEGHHHHHH | soluble |
